Laboratory results from US20240192215A1 (E AND S HEALTHCARE, published 2024).

Experiments:
Assay in all cases: peptide microarray, anti-mouse IgG DyLight 650, MMC2 heatmap (Example 17)
Peptide_008 = target: T1, Peptide_008
T1 peptide: HSQHHHHHHHHVKQI
Method: (§1) 5, 1, 0.2, 0.04, 0.008 and 0.0016 μg/mL serial dilutions were incubated on a single multi-well microarray slide at 30° C. for 1 hour. The slide includes 21 individual mini-arrays (one mini-array per sample dilution).
(§2) DyLight 650 was used as a label. False-positive binding to a peptide was evaluated by performing one additional control incubation in which only a secondary antibody was applied on the same microarray slide. Before performing each step, the microarrays were washed with a washing buffer.
(§3) To visualize the obtained results and compare binding regions across individual cultures, as shown in FIGS. 21A to 21D, heatmap diagrams were calculated. In FIGS. 21A to 21D, the fluorescence intensity is expressed in a color-coded manner, white indicates no binding, and red indicates strong binding. For all evaluations, the MMC2-value of the average pixel fluorescence for each peptide was calculated.

Peptide_010 = target: T2, Peptide_010
T2 peptide: QHHHHHHHHVKQIES
Method: as §1, §2, §3

Peptide_017 = target: T3, Peptide_017
T3 peptide: HHVKQIESKTAFQEA
Method: as §1, §2, §3

Peptide_027 = target: T4, Peptide_027
T4 peptide: AFQEALDAAGDKLVV
Method: as §1, §2, §3

Peptide_031 = target: T5, Peptide_031
T5 peptide: ALDAAGDKLVVVDFS
Method: as §1, §2, §3

Peptide_033 = target: T6, Peptide_033
T6 peptide: DAAGDKLVVVDFSAT
Method: as §1, §2, §3

Peptide_034 = target: T7, Peptide_034
T7 peptide: AAGDKLVVVDFSATW
Method: as §1, §2, §3

Peptide_036 = target: T8, Peptide_036
T8 peptide: GDKLVVVDFSATWCG
Method: as §1, §2, §3

Peptide_037 = target: T9, Peptide_037
T9 peptide: DKLVVVDFSATWCGP
Method: as §1, §2, §3

Peptide_058 = target: T10, Peptide_058
T10 peptide: FFHSLSEKYSNVIFL
Method: as §1, §2, §3

Peptide_060 = target: T11, Peptide_060
T11 peptide: HSLSEKYSNVIFLEV
Method: as §1, §2, §3

Peptide_061 = target: T12, Peptide_061
T12 peptide: SLSEKYSNVIFLEVD
Method: as §1, §2, §3

Peptide_066 = target: T13, Peptide_066
T13 peptide: YSNVIFLEVDVDDCQ
Method: as §1, §2, §3

Peptide_067 = target: T14, Peptide_067
T14 peptide: SNVIFLEVDVDDCQD
Method: as §1, §2, §3

Peptide_068 = target: T15, Peptide_068
T15 peptide: NVIFLEVDVDDCQDV
Method: as §1, §2, §3

Peptide_069 = target: T16, Peptide_069
T16 peptide: VIFLEVDVDDCQDVA
Method: as §1, §2, §3

Peptide_071 = target: T17, Peptide_071
T17 construct: also called FLEVDVDDCQDVASE
T17 peptide: FLEVDVDDCQDVASE
Method: as §1, §2, §3

Peptide_075 = target: T18, Peptide_075
T18 peptide: DVDDCQDVASECEVK
Method: as §1, §2, §3

Peptide_076 = target: T19, Peptide_076
T19 peptide: VDDCQDVASECEVKC
Method: as §1, §2, §3

Peptide_081 = target: T20, Peptide_081
T20 peptide: DVASECEVKCMPTFQ
Method: as §1, §2, §3

Peptide_082 = target: T21, Peptide_082
T21 peptide: VASECEVKCMPTFQF
Method: as §1, §2, §3

Peptide_088 = target: T22, Peptide_088
T22 peptide: VKCMPTFQFFKKGQK
Method: as §1, §2, §3

Peptide_091 = target: T23, Peptide_091
T23 peptide: MPTFQFFKKGQKVGE
Method: as §1, §2, §3

Peptide_098 = target: T24, Peptide_098
T24 peptide: KKGQKVGEFSGANKE
Method: as §1, §2, §3

Peptide_103 = target: T25, Peptide_103
T25 peptide: VGEFSGANKEKLEAT
Method: as §1, §2, §3

Peptide_108 = target: T26, Peptide_108
T26 peptide: GANKEKLEATINELV
Method: as §1, §2, §3

Peptide_003 = target: T27, Peptide_003
T27 peptide: TAADVHSQHHHHHHH
Method: as §1, §2, §3

Peptide_005 = target: T28, Peptide_005 (human)
T28 construct: 15-mer on microarray; not native form, recombinant insert region
T28 peptide: ADVHSQHHHHHHHHV
Method: as §1, §2, §3

binding result (Peptide_008): no binding (tested: 5 ug/mL)
binding result (Peptide_010): no binding (tested: 5 ug/mL)
binding result (Peptide_017): binds
binding result (Peptide_027): no binding (tested: 5 ug/mL)
binding result (Peptide_031): no binding (tested: 5 ug/mL)
binding result (Peptide_033): no binding (tested: 5 ug/mL)
binding result (Peptide_034): no binding (tested: 5 ug/mL)
binding result (Peptide_036): no binding (tested: 5 ug/mL)
binding result (Peptide_037): no binding (tested: 5 ug/mL)
binding result (Peptide_058): no binding (tested: 5 ug/mL)
binding result (Peptide_060): binds
binding result (Peptide_061): no binding (tested: 5 ug/mL)
binding result (Peptide_066): no binding (tested: 5 ug/mL)
binding result (Peptide_067): no binding (tested: 5 ug/mL)
binding result (Peptide_068): no binding (tested: 5 ug/mL)
binding result (Peptide_069): no binding (tested: 5 ug/mL)
binding result (Peptide_071): no binding (tested: 5 ug/mL)
binding result (Peptide_075): no binding (tested: 5 ug/mL)
binding result (Peptide_076): no binding (tested: 5 ug/mL)
binding result (Peptide_081): no binding (tested: 5 ug/mL)
binding result (Peptide_082): no binding (tested: 5 ug/mL)
binding result (Peptide_088): no binding (tested: 5 ug/mL)
binding result (Peptide_091): no binding (tested: 5 ug/mL)
binding result (Peptide_098): no binding (tested: 5 ug/mL)
binding result (Peptide_103): no binding (tested: 5 ug/mL)
binding result (Peptide_108): no binding (tested: 5 ug/mL)
binding result (Peptide_003): no binding (tested: 5 ug/mL)
binding result (Peptide_005): no binding (tested: 5 ug/mL)
B1: monoclonal antibody B264 (antibody, mouse IgG1, kappa, V domains shown)
VH: QVQLQQSGAELARPGASVKMSCKASGYTFTSYTMHWVKQRPGQGLEWIGYINPTSDYTNYNQKFKDKATLTADKSSSTAYMQLSSLTSEDSAVYFCASEGGFLYYFDYWGQGTTLTVSS
VL: DVLMTQTPLSLPVSLGDQASISCRSSQSIVHSNGNTYLEWYLQKPGQSPKLLIYKVSNRFSGVPDRFSGSGSGTDFTLKISRVEAEDLGVYYCFQGSHVPYTFGGGTKLEIKR
notes: also called AB264; B264 (Trx1-mIgG1)
